These results are taken from US20180273626A1 (Stanford University, published 2018).

Assay [1] deals with T1, CD23 on B cells (human, UniProt P06734 1-321).
T1 construct: whole, on cells; also called CD23 receptor; CD23+ B-cells
T1 sequence (looked up): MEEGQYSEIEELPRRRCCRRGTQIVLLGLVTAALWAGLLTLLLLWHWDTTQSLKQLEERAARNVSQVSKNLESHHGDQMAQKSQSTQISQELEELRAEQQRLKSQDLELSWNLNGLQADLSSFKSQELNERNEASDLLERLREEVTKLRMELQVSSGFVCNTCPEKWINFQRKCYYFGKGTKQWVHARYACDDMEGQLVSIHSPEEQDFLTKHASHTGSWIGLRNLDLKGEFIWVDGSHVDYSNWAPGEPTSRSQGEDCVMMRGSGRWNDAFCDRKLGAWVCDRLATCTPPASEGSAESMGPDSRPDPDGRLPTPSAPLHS
Put plainly: summary sentence of Example 1.

For assay [2], the target named is T2, FcεRI on primary human basophils (human, UniProt P12319 26-257).
T2 construct: whole, on cells; on cells it stands with gamma chains (and a beta chain); also called FcεRIα on basophils; E2_79-treated basophils
T2 sequence (looked up): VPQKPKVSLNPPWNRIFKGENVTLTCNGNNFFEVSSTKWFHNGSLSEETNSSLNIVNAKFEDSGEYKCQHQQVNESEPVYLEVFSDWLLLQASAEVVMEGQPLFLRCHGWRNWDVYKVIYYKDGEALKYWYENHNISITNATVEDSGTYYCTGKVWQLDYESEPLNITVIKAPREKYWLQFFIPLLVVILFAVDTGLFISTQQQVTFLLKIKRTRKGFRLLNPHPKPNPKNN
The assay is described as follows: flow cytometry on primary human basophils, anti-biotin staining. From the text:
(§1) Blood was drawn from two healthy volunteers and a third volunteer with a history of food allergy ranging in age from 21 to 37 (the protocol for this study was approved by the Institutional Review Board of Stanford University, and all informed consent was obtained from all subjects). Blood was collected in heparin vacutainer tubes (BD), and washed in 10 blood volumes of BF buffer (RPMI-1640 (Life Technologies) supplemented with 10% fetal calf serum (FCS; Gibco) and 1% penicillin/streptomycin (Gibco)). […] The following day cells were washed three times with BF buffer at 4° C. and stained for analysis.
(§2) Stained cells were then lysed with RBS lysis buffer (BioLegend) for 5 min at room temperature, and washed with FACS buffer (PBS pH 7.4 supplemented with 10% FCS). Data were collected on a DxP FACSCAN from Cytek Development in Fremont, Calif. (10 colors with three lasers—488, 639, 407) using FlowJo CE and analyzed using FlowJo (version 10).
For orientation: In flow cytometry, cells or beads pass a laser one at a time.

In assay [3] the target is T1, CD23 on B cells. The assay is described as follows: flow cytometry on CD23+ B cells.
Excerpt: as §1, §2

Changes are numbered by the printed parent chain. Names and notes keep the numbering of the source.

B1: IgE-R419N-Fc3-4 (other)
chain: CADSNPRGVSAYLSRPSPFDLFIRKSPTITCLVVDLAPSKGTVNLTWSRASGKPVNHSTRKEEKQRNGTLTVTSTLPVGTRDWIEGETYQCNVTHPHLPRALMRSTTKTSGPRAAPEVYAFATPEWPGSRDKRTLACLIQNFMPEDISVQWLHNEVQLPDARHSTTQPRKTKGSGFFVFSRLEVTRAEWEQKDEFICRAVHEAASPSQTVQRAVSVNP
modifications: additional N-linked glycan at N419 (Asn-92 of SEQ ID NO: 2)
notes: Mammalian derived (HEK-6E); biotinylated in the basophil exchange assays; also called R419N-IgE-Fc3-4; R419N mutant
In the case of B1, the binding result (with CD23 on B cells [1]; in assay [2]) was “binds” each time.

B2: IgE-Fc3-4 (other)
chain: B1 chain with N92R
notes: Made both in insect cells (High Five) and in mammalian cells (HEK-6E); the mammalian protein, biotinylated, was used in the cell assays; also called wild-type IgE-Fc3-4; WT IgE-Fc3-4
With B2, the binding result (in assay [2]; with CD23 on B cells [3]) was “binds” throughout.
